B1: PLAGL1 (parent)
chain: CKDFLCQFCAQRFGRKDHLTRHTK

Variants of: B1
Experiment: protein stability index of a GFP-peptide fusion (GPS, HEK-293T) (PSI 1-6); higher = more stable
Details: c terminus: a fixed tail appended
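Note: lentivirally expressed fusions sorted by FACS into six bins by GFP to DsRed ratio, PSI derived from sequencing read proportions per bin multiplied by bin number.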

Q: With CKDFLCQFCAQRFGRKDHWTRHTK [L19W] as the variant, how does the protein stability index read?
A: 1.65

Q: Which protein stability index does the source give for CKDFLCQFCAQRFGRKDHTTRHTK [L19T] here?
A: 3.32

Q: With CKDFLCQFCAQRFGRKDHLTRHSK [T23S] as the variant, how does the protein stability index read?
A: 2.38

Q: With CKDFLCQFCAQRFGRKDHLTRHRK [T23R] as the variant, how does the protein stability index read?
A: 1.95

Q: For CKDFLCQFCAQRFGRKDHLTRHIK [T23I], which protein stability index is on record?
A: 2.4

Q: Which protein stability index does the source give for CKDFLCQFCAQRFGRKDHLTRHNK [T23N] here?
A: 1.81

Q: For CKDFLCQFCAQRFGRKDHLTRHGK [T23G], which protein stability index is on record?
A: 2.15

Q: Which protein stability index does the source give for CKDFLCQFCAQRFGRKDHLTRHMK [T23M] here?
A: 2.04

Q: With CKDFLCQFCAQRFGRKDHLTRHDK [T23D] as the variant, how does the protein stability index read?
A: 2.81

Q: For CKDFLCQFCAQRFGRKDHLTRHAK [T23A], which protein stability index is on record?
A: 2

Q: For CKDFLCQFCAQRFGRKDHLTRHYK [T23Y], which protein stability index is on record?
A: 1.77

Q: With CKDFLCQFCAQRFGRKDHLTRHCK [T23C] as the variant, how does the protein stability index read?
A: 2.17

Q: For CKDFLCQFCAQRFGRKDHLTRHPK [T23P], which protein stability index is on record?
A: 1.76

Q: For CKDFLCQFCAQRFGRKDHLTRHLK [T23L], which protein stability index is on record?
A: 1.62

Q: With CKDFLCQFCAQRFGRKDHLTRHEK [T23E] as the variant, how does the protein stability index read?
A: 1.68

Q: For CKDFLCQFCAQRFGRKDHLTRHWK [T23W], which protein stability index is on record?
A: 1.51

Q: With CKDFLCQFCAQRFGRKDHLTRHQK [T23Q] as the variant, how does the protein stability index read?
A: 3.45

Q: With CKDFLCQFCAQRFGRKDHLTRHFK [T23F] as the variant, how does the protein stability index read?
A: 2.23

Q: For CKDFLCQFCAQRFGRKDHLTRHKK [T23K], which protein stability index is on record?
A: 2.44

Q: With CKDFLCQFCAQRFGRKDHLTRHHK [T23H] as the variant, how does the protein stability index read?
A: 2.02

Q: With CKDFLCQFCAQRFGRKDHLTRHVK [T23V] as the variant, how does the protein stability index read?
A: 1.87

Q: With CKDFLCQFCAQRFGRKDHLSRHTK [T20S] as the variant, how does the protein stability index read?
A: 2.17

Q: For CKDFLCQFCAQRFGRKDHLERHTK [T20E], which protein stability index is on record?
A: 2.29

Q: For CKDFLCQFCAQRFGRKDHLNRHTK [T20N], which protein stability index is on record?
A: 2.01

Q: With CKDFLCQFCAQRFGRKDHLFRHTK [T20F] as the variant, how does the protein stability index read?
A: 1.83

Q: For CKDFLCQFCAQRFGRKDHLPRHTK [T20P], which protein stability index is on record?
A: 1.82

Q: With CKDFLCQFCAQRFGRKDHLYRHTK [T20Y] as the variant, how does the protein stability index read?
A: 1.82

Q: For CKDFLCQFCAQRFGRKDHLVRHTK [T20V], which protein stability index is on record?
A: 2.28

Q: For CKDFLCQFCAQRFGRKDHLQRHTK [T20Q], which protein stability index is on record?
A: 1.75

Q: Which protein stability index does the source give for CKDFLCQFCAQRFGRKDHLGRHTK [T20G] here?
A: 2.17

Q: For CKDFLCQFCAQRFGRKDHLWRHTK [T20W], which protein stability index is on record?
A: 1.47

Q: Which protein stability index does the source give for CKDFLCQFCAQRFGRKDHLMRHTK [T20M] here?
A: 2.66

Q: With CKDFLCQFCAQRFGRKDHLRRHTK [T20R] as the variant, how does the protein stability index read?
A: 1.93

Q: With CKDFLCQFCAQRFGRKDHLLRHTK [T20L] as the variant, how does the protein stability index read?
A: 2.22

Q: Which protein stability index does the source give for CKDFLCQFCAQRFGRKDHLKRHTK [T20K] here?
A: 2.35

Q: With CKDFLCQFCAQRFGRKDHLDRHTK [T20D] as the variant, how does the protein stability index read?
A: 1.72

Q: Which protein stability index does the source give for CKDFLCQFCAQRFGRKDHLCRHTK [T20C] here?
A: 3.02

Q: Which protein stability index does the source give for CKDFLCQFCAQRFGRKDHLHRHTK [T20H] here?
A: 1.96

Q: With CKDFLCQFCAQRFGRKDHLARHTK [T20A] as the variant, how does the protein stability index read?
A: 2.25

Q: Which protein stability index does the source give for CKDFLCQFCAQRFGRKDHLIRHTK [T20I] here?
A: 1.58

Q: For CKDFLCQFCAQRFGRKDHLTWHTK [R21W], which protein stability index is on record?
A: 2.16

Q: For CKDFLCQFCAQRFGRKDHLTGHTK [R21G], which protein stability index is on record?
A: 2.02

Q: For CKDFLCQFCAQRFGRKDHLTKHTK [R21K], which protein stability index is on record?
A: 2.27

Q: With CKDFLCQFCAQRFGRKDHLTNHTK [R21N] as the variant, how does the protein stability index read?
A: 2.53

Q: Which protein stability index does the source give for CKDFLCQFCAQRFGRKDHLTSHTK [R21S] here?
A: 1.3

Q: With CKDFLCQFCAQRFGRKDHLTPHTK [R21P] as the variant, how does the protein stability index read?
A: 2.1

Q: With CKDFLCQFCAQRFGRKDHLTYHTK [R21Y] as the variant, how does the protein stability index read?
A: 1.85

Q: Which protein stability index does the source give for CKDFLCQFCAQRFGRKDHLTQHTK [R21Q] here?
A: 2.56

Q: Which protein stability index does the source give for CKDFLCQFCAQRFGRKDHLTHHTK [R21H] here?
A: 1.87

Q: With CKDFLCQFCAQRFGRKDHLTCHTK [R21C] as the variant, how does the protein stability index read?
A: 2.01

Q: Which protein stability index does the source give for CKDFLCQFCAQRFGRKDHLTMHTK [R21M] here?
A: 1.97

Q: For CKDFLCQFCAQRFGRKDHLTTHTK [R21T], which protein stability index is on record?
A: 1.77

Q: For CKDFLCQFCAQRFGRKDHLTIHTK [R21I], which protein stability index is on record?
A: 1.82

Q: Which protein stability index does the source give for CKDFLCQFCAQRFGRKDHLTAHTK [R21A] here?
A: 1.94

Q: For CKDFLCQFCAQRFGRKDHLTDHTK [R21D], which protein stability index is on record?
A: 2.37

Q: With CKDFLCQFCAQRFGRKDHLTLHTK [R21L] as the variant, how does the protein stability index read?
A: 2.1

Q: Which protein stability index does the source give for CKDFLCQFCAQRFGRKDHLTVHTK [R21V] here?
A: 1.59

Q: With CKDFLCQFCAQRFGRKDHLTEHTK [R21E] as the variant, how does the protein stability index read?
A: 2.48

Q: With CKDFLCQFCAQRFGRKDHLTRETK [H22E] as the variant, how does the protein stability index read?
A: 1.8

Q: Which protein stability index does the source give for CKDFLCQFCAQRFGRKDHLTRGTK [H22G] here?
A: 2.56

Q: Which protein stability index does the source give for CKDFLCQFCAQRFGRKDHLTRATK [H22A] here?
A: 2.03

Q: For CKDFLCQFCAQRFGRKDHLTRLTK [H22L], which protein stability index is on record?
A: 1.85

Q: With CKDFLCQFCAQRFGRKDHLTRQTK [H22Q] as the variant, how does the protein stability index read?
A: 1.77

Q: For CKDFLCQFCAQRFGRKDHLTRMTK [H22M], which protein stability index is on record?
A: 2.12

Q: With CKDFLCQFCAQRFGRKDHLTRDTK [H22D] as the variant, how does the protein stability index read?
A: 2.09

Q: Which protein stability index does the source give for CKDFLCQFCAQRFGRKDHLTRRTK [H22R] here?
A: 2.15

Q: For CKDFLCQFCAQRFGRKDHLTRITK [H22I], which protein stability index is on record?
A: 1.76

Q: With CKDFLCQFCAQRFGRKDHLTRKTK [H22K] as the variant, how does the protein stability index read?
A: 1.68

Q: For CKDFLCQFCAQRFGRKDHLTRSTK [H22S], which protein stability index is on record?
A: 2.04

Q: For CKDFLCQFCAQRFGRKDHLTRFTK [H22F], which protein stability index is on record?
A: 1.65

Q: With CKDFLCQFCAQRFGRKDHLTRPTK [H22P] as the variant, how does the protein stability index read?
A: 2.3

Q: With CKDFLCQFCAQRFGRKDHLTRTTK [H22T] as the variant, how does the protein stability index read?
A: 2.57

Q: Which protein stability index does the source give for CKDFLCQFCAQRFGRKDHLTRCTK [H22C] here?
A: 2.4

Q: With CKDFLCQFCAQRFGRKDHLTRVTK [H22V] as the variant, how does the protein stability index read?
A: 2.81

Q: Which protein stability index does the source give for CKDFLCQFCAQRFGRKDHLTRNTK [H22N] here?
A: 1.48

Q: For CKDFLCQFCAQRFGRKDHLTRYTK [H22Y], which protein stability index is on record?
A: 2.7

Q: With CKDFLCQFCAQRFGRKDHLTRWTK [H22W] as the variant, how does the protein stability index read?
A: 2.52

Q: With CKDFLCQFCAQRFGRKDHLTRHTL [K24L] as the variant, how does the protein stability index read?
A: 1.49

Q: Which protein stability index does the source give for CKDFLCQFCAQRFGRKDHLTRHTI [K24I] here?
A: 2.08

Q: Which protein stability index does the source give for CKDFLCQFCAQRFGRKDHLTRHTG [K24G] here?
A: 1.74

Q: With CKDFLCQFCAQRFGRKDHLTRHTY [K24Y] as the variant, how does the protein stability index read?
A: 1.56

Q: For CKDFLCQFCAQRFGRKDHLTRHTW [K24W], which protein stability index is on record?
A: 2.03

Q: Which protein stability index does the source give for CKDFLCQFCAQRFGRKDHLTRHTM [K24M] here?
A: 1.74

Q: Which protein stability index does the source give for CKDFLCQFCAQRFGRKDHLTRHTN [K24N] here?
A: 1.9

Q: With CKDFLCQFCAQRFGRKDHLTRHTV [K24V] as the variant, how does the protein stability index read?
A: 1.67

Q: Which protein stability index does the source give for CKDFLCQFCAQRFGRKDHLTRHTT [K24T] here?
A: 2.24

Q: Which protein stability index does the source give for CKDFLCQFCAQRFGRKDHLTRHTH [K24H] here?
A: 2.41

Q: For CKDFLCQFCAQRFGRKDHLTRHTD [K24D], which protein stability index is on record?
A: 1.73

Q: Which protein stability index does the source give for CKDFLCQFCAQRFGRKDHLTRHTQ [K24Q] here?
A: 2.25

Q: For CKDFLCQFCAQRFGRKDHLTRHTE [K24E], which protein stability index is on record?
A: 2.3

Q: For CKDFLCQFCAQRFGRKDHLTRHTS [K24S], which protein stability index is on record?
A: 2.02

Q: With CKDFLCQFCAQRFGRKDHLTRHTA [K24A] as the variant, how does the protein stability index read?
A: 2.73

Q: For CKDFLCQFCAQRFGRKDHLTRHTF [K24F], which protein stability index is on record?
A: 2.4

Q: Which protein stability index does the source give for CKDFLCQFCAQRFGRKDHLTRHTP [K24P] here?
A: 2.21

Q: For CKDFLCQFCAQRFGRKDHLTRHTC [K24C], which protein stability index is on record?
A: 2.83

Q: Which protein stability index does the source give for CKDFLCQFCAQRFGRKDHLTRHTR [K24R] here?
A: 2.08

From the supplement of paper PMC10567573
